Experimental data as given in US20080261241A1, “Targeted ubiquitination of proteins and screening methods using a new class of ubiquitin ligase proteins” (INSTITUT PASTEUR, priority 2007, published 2008).
Peptide text beside a SMILES is read from it. * marks the point of attachment. Cbz = O=C(OCc1ccccc1)*

Key:
[1] = system: proteasome; experiment: Proteasome inhibition: Ste7 disappearance in MG132-permeable erg6 mutant; type: cell-based, Saccharomyces cerevisiae; settings: MG132 100 μM, 2 h
Protocol: To test if the IpaH-mediated disappearance of Ste7 required proteasome function, a yeast strain carrying the cim5-1 allele encoding a component of the 26-S proteasome that is functional at 25° C. but not at 37° C. (Ghislain et al., 1993) was used. […] (FIG. 3A). […] Thus, the disappearance of Ste7 promoted by IpaH9.8 is proteasome-dependent.
Standard media and techniques were used for transformation, maintenance, and growth of yeast (Guthrie C, 1991). Halo assays were performed as described (Hoffman et al., 2002) using disks impregnated with 15 μg of α-factor. erg6 ? yeast were transformed with plasmids encoding IpaH9.8 or IpaH9.8-C337A and grown in selective media containing 1% raffinose to mid log phase. Following addition of MG132 (100 μM) and galactose (2%), cultures were incubated for 2 h and cell extracts were prepared as described (Wang et al., 2003). β-Galactosidase assays were performed as described (Guarente, 1983).

[2] = target: His-tagged UbcH5B, P62837
Sequence of His-tagged UbcH5B, P62837 (P62837 whole entry, looked up): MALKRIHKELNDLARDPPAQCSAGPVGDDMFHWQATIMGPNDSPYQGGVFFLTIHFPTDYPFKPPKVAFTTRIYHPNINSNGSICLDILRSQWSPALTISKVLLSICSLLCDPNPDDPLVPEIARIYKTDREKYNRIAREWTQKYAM

[3] = system: sst2Δ cells; experiment: Growth of sst2Δ yeast in the presence of pheromone; type: cell-based, Saccharomyces cerevisiae; settings: galactose-induced production, α-factor plates

CC(C)C[C@@H](C=O)NC(=O)[C@H](CC(C)C)NC(=O)[C@H](CC(C)C)NC(=O)OCc1ccccc1 [MG132] (Cbz-Leu-Leu-Leu-aldehyde)
disappearance of Ste7 provoked by IpaH9.8 [1]: prevented the disappearance of Ste7

B1: GST-SspH1 (protein)
chain: EFMLPINNNFSLPQNSFYNTISGTYADYFSAWDKWEKQALPGEERDEAVSRLKECLINNSDELRLDRLNLSSLPDNLPAQITLLNVSYNQLTNLPELPVTLKKLYSASNKLSELPVLPPALESLQVQHNELENLPALPDSLLTMNISYNEIVSLPSLPQALKNLRATRNFLTELPAFSEGNNPVVREYFFDRNQISHIPESILNLRNECSIHISDNPLSSHALQALQRLTSSPDYHGPRIYFSMSDGQQNTLHRPLADAVTAWFPENKQSDVSQIWHAFEHEEHANTFSAFLDRLSDTVSARNTSGFREQVAAWLEKLSASAELRQQSFAVAADATESCEDRVALTWNNLRKTLLVHQASEGLFDNDTGALLSLGREMFRLEILEDIARDKVRTLHFVDEIEVYLAFQTMLAEKLQLSTAVKEMRFYGVSGVTANDLRTAEAMVRSREENEFTDWFSLWGPWHAVLKRTEADRWAQAEEQKYEMLENEYPQRVADRLKASGLSGDADAEREAGAQVMRETEQQIYRQLTDEVLALRLFENGSQLHHS
removal of ubiquitin from ubiquitinated UbcH5B [2]: SspH1 was endowed with the activities (i) to remove ubiquitin from ubiquitinated UbcH5B

B2: IpaH7.8: another IpaH family member from Shigella (protein, UniProt P18014 1-565, looked up)
E3 ubiquitin-protein ligase …: MFSVNNTHSSVSCSPSINSNSTSNEHYLRILTEWEKNSSPGEERGIAFNRLSQCFQNQEAVLNLSDLNLTSLPELPKHISALIVENNKLTSLPKLPAFLKELNADNNRLSVIPELPESLTTLSVRSNQLENLPVLPNHLTSLFVENNRLYNLPALPEKLKFLHVYYNRLTTLPDLPDKLEILCAQRNNLVTFPQFSDRNNIRQKEYYFHFNQITTLPESFSQLDSSYRINISGNPLSTRVLQSLQRLTSSPDYHGPQIYFSMSDGQQNTLHRPLADAVTAWFPENKQSDVSQIWHAFEHEEHANTFSAFLDRLSDTVSARNTSGFREQVAAWLEKLSASAELRQQSFAVAADATESCEDRVALTWNNLRKTLLVHQASEGLFDNDTGALLSLGREMFRLEILEDIARDKVRTLHFVDEIEVYLAFQTMLAEKLQLSTAVKEMRFYGVSGVTANDLRTAEAMVRSREENEFTDWFSLWGPWHAVLKRTEADRWAQAEEQKYEMLENEYSQRVADRLKASGLSGDADAEREAGAQVMRETEQQIYRQLTDEVLALRLSENGSRLHHS
growth of sst2Δ cells in the presence of pheromone [3]: rescued the pheromone-induced growth arrest of sst2Δ cells

B3: GST-IpaH9.8 (protein)
chain: MLPINNNFSLPQNSFYNTISGTYADYFSAWDKWEKQALPGEERDEAVSRLKECLINNSDELRLDRLNLSSLPDNLPAQITLLNVSYNQLTNLPELPVTLKKLYSASNKLSELPVLPPALESLQVQHNELENLPALPDSLLTMNISYNEIVSLPSLPQALKNLRATRNFLTELPAFSEGNNPVVREYFFDRNQISHIPESILNLRNECSIHISDNPLSSHALQALQRLTSSPDYHGPRIYFSMSDGQQNTLHRPLADAVTAWFPENKQSDVSQIWHAFEHEEHANTFSAFLDRLSDTVSARNTSGFREQVAAWLEKLSASAELRQQSFAVAADATESCEDRVALTWNNLRKTLLVHQASEGLFDNDTGALLSLGREMFRLEILEDIARDKVRTLHFVDEIEVYLAFQTMLAEKLQLSTAVKEMRFYGVSGVTANDLRTAEAMVRSREENEFTDWFSLWGPWHAVLKRTEADRWAQAEEQKYEMLENEYPQRVADRLKASGLSGDADAEREAGAQVMRETEQQIYRQLTDEVLALRLSENGSQLHHS
removal of ubiquitin from ubiquitinated UbcH5B, immunoblot with streptavidin-peroxidase [2]: after ubiquitination of UbcH5B, addition of GST-IpaH9.8 to the reaction mixture promoted the removal of ubiquitin from UbcH5B
